This is an account of results in article PMC3964601 (Biochemistry, 2012).

Like-named read-outs stand apart in the source and are kept apart here.

To fix the notation:
B1: Pyrococcus furiosus RNase P protein RPP29 (natural protein)
chain: MWRNSEERENRTSGRSQGSYQEIIGRTWIFRGAHRGRVNKKNIVWHELIGLKVRVVNSTHPGYVGIEGYVIDETRNMLVIAGENKVWKVPKDVCIFEFETWDGTKIKISGEKLVGRPEMRLKKRWRK
B2: Pyrococcus furiosus RNase P protein RPP21 (natural protein)
chain: MAKYNEKKEKKRIAKERIDILFSLAERVFPYSPELAKRYVELALLVQQKAKVKIPRKWKRRYCKKCHAFLVPGINARVRLRQKRMPHIVVKCLECGHIMRYPYIKEIKKRRKEKMEY

What all share (assay): ITC
A general note: Isothermal titration calorimetry measures the heat released or taken up as one component is titrated into another.

Test [1] concerns the target B2.
Test [2] deals with B2. This is another data set of the same source.
Test [3] concerns the target B2. The source holds these as a separate data set.
The target of test [4] is B2. This is another data set of the same source.
Test [5] addresses B2. The source holds these as a separate data set.
In test [6] the target is B2. The source holds these as a separate data set.
Test [7] addresses B2. The source holds these as a separate data set.
The target in test [8] is B2. The source holds these as a separate data set.
Test [9] concerns the target B2. This is another data set of the same source.
In test [10] the target is B2. This is another data set of the same source.
For test [11], the target named is B2. This is another data set of the same source.
The target of test [12] is B1.
For test [13], the target named is B1. The source holds these as a separate data set.
Test [14] concerns the target B1. This is another data set of the same source.
The target of test [15] is B1. This is another data set of the same source.
Test [16] concerns the target B1. This is another data set of the same source.
The target in test [17] is B1. The source holds these as a separate data set.
Test [18] addresses B1. This is another data set of the same source.
Test [19] addresses B1. The source holds these as a separate data set.
Test [20] addresses B1. The source holds these as a separate data set.

Usually stoichiometry N stands for the number of molecules, sites or subunits per partner or assembly. On to B1, for which the dH is -43 kcal/mol in test [1]; -37.6 kcal/mol in [2]; -34.3 kcal/mol in test [3]; 11.6 kcal/mol in [4]; -10.2 kcal/mol in [5]; -15.8 kcal/mol in test [6]. The dH is -23.5 kcal/mol in test [7]; 5.95 kcal/mol in [8]; -5.19 kcal/mol in test [9]; 17.1 kcal/mol in test [10]; -32 kcal/mol in test [11]. The “stoichiometry N” value in [4] amounted to 1.01 RPP29 per RPP21; in test [5] it was 0.998 RPP29 per RPP21; in test [6] it was 1.03 RPP29 per RPP21; in test [7] it was 1 RPP29 per RPP21; in [8] it was 0.9 RPP29 per RPP21; in test [9], 0.986 RPP29 per RPP21. Besides, the figures for the “stoichiometry N” value in [10] and in [11] were 0.956 RPP29 per RPP21 and 0.97 RPP29 per RPP21, respectively.
Consider B2, for which the Ka in [12] turned out to be 1.09e+07 M⁻¹; in test [13] it was 2.01e+07 M⁻¹; in [14] it was 1.71e+07 M⁻¹; in test [15], 1.07e+07 M⁻¹; in test [16], 9.55e+06 M⁻¹; in test [17] it was 3.32e+07 M⁻¹. The Ka was determined as 9.17e+06 M⁻¹ in [18] and 2.04e+06 M⁻¹ in test [19].

B3: Pyrococcus furiosus RPP21/A14V (natural protein)
chain: MAKYNEKKEKKRIVKERIDILFSLAERVFPYSPELAKRYVELALLVQQKAKVKIPRKWKRRYCKKCHAFLVPGINARVRLRQKRMPHIVVKCLECGHIMRYPYIKEIKKRRKEKMEY
With B3, the binding result in [20] was “binds”.
